The values that follow come from article doi:10.1101/2020.07.27.221150.

In test [1] the target is GNNQQNY, N-terminal hepta-peptide of yeast prion protein Sup35 (yeast).
The target is the same in test [2]. The source holds these as a separate data set.

Where two headings read alike, the source gives them in different places.

Turning to “GNNQQNY, N-terminal hepta-peptide of yeast prion protein Sup35”, the size of the critical nucleus n* came to 7.2 monomers in test [1] and 6 monomers in test [2].
